Measurements published in the supplement of paper PMC5998384.

Experiments:
[1] = tested on: HeLa Kyoto; experiment: solubility in G1/S (NP-40 vs SDS abundance) (log2 ratio); higher = more soluble; settings: cell cycle stage: G1/S
[2] = tested on: HeLa Kyoto; experiment: melting temperature (median over replicates), in situ; higher = more thermally stable
[3] = tested on: HeLa Kyoto; experiment: thermal stability score vs G1/S (z-score of summed log2 fold changes over temperatures); higher = more thermally stable than in G1/S
[4] = tested on: HeLa Kyoto; experiment: solubility change mitosis vs G1/S (difference of NP-40 vs SDS log2 ratios) (log2 ratio difference); higher = more soluble in mitosis
[5] = cell cycle stage: early G1 (4.5 h after nocodazole release)
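Throughout, for melting temperature (median over replicates), in situ: HeLa Kyoto cells synchronized by double thymidine or nocodazole block, proteins quantified by TMT10plex mass spectrometry, three independent biological replicates.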
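Throughout, for solubility change mitosis vs G1/S (difference of NP-40 vs SDS log2 ratios): synchronized HeLa Kyoto cells (double thymidine block for G1/S, nocodazole release for mitosis), protein amounts in NP-40 versus SDS lysates quantified by mass spectrometry, three biological replicates.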
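Throughout, for solubility in G1/S (NP-40 vs SDS abundance): HeLa Kyoto cells arrested at G1/S by double thymidine block, proteins quantified by TMT10plex mass spectrometry in mild NP-40 versus SDS extracts, three biological replicates.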
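Throughout, for thermal stability score vs G1/S (z-score of summed log2 fold changes over temperatures): synchronized HeLa Kyoto cells, proteins quantified by TMT10plex mass spectrometry, three biological replicates, mitosis taken 0.5 h after nocodazole release, G1/S directly after double thymidine block.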

Sequence	solubility in G1/S (log2) [1]	melting temperature ([2]; cell cycle stage: G1/S)	melting temperature ([2]; cell cycle stage: mitosis)	thermal stability score [3, 5]	thermal stability score ([3]; cell cycle stage: mitosis)	solubility change mitosis (log2) [4]
MKLKLNVLTIILLPVHLLITIYSALIFIPWYFLTNAKKKNAMAKRIKAKPTSDKPGSPYRSVTHFDSLAVIDIPGADTLDKLFDHAVSKFGKKDSLGTREILSEENEMQPNGKVFKKLILGNYKWMNYLEVNRRVNNFGSGLTALGLKPKNTIAIFCETRAEWMIAAQTCFKYNFPLVTLYATLGKEAVVHGLNESEASYLITSVELLESKLKTALLDISCVKHIIYVDNKAINKAEYPEGFEIHSMQSVEELGSNPENLGIPPSRPTPSDMAIVMYTSGSTGRPKGVMMHHSNLIAGMTGQCERIPGLGPKDTYIGYLPLAHVLELTAEISCFTYGCRIGYSSPLTLSDQSSKIKKGSKGDCTVLKPTLMAAVPEIMDRIYKNVMSKVQEMNYIQKTLFKIGYDYKLEQIKKGYDAPLCNLLLFKKVKALLGGNVRMMLSGGAPLSPQTHRFMNVCFCCPIGQGYGLTESCGAGTVTEVTDYTTGRVGAPLICCEIKLKDWQEGGYTINDKPNPRGEIVIGGQNISMGYFKNEEKTAEDYSVDENGQRWFCTGDIGEFHPDGCLQIIDRKKDLVKLQAGEYVSLGKVEAALKNCPLIDNICAFAKSDQSYVISFVVPNQKRLTLLAQQKGVEGTWVDICNNPAMEAEILKEIREAANAMKLERFEIPIKVRLSPEPWTPETGLVTDAFKLKRKELRNHYLKDIERMYGGK [ACSL4]	-0.0428	48.8 °C	48.7 °C	1.35	2.2	-0.157
MKLLLLHPAFQSCLLLTLLGLWRTTPEAHASSLGAPAISAASFLQDLIHRYGEGDSLTLQQLKALLNHLDVGVGRGNVTQHVQGHRNLSTCFSSGDLFTAHNFSEQSRIGSSELQEFCPTILQQLDSRACTSENQENEENEQTEEGRPSAVEVWGYGLLCVTVISLCSLLGASVVPFMKKTFYKRLLLYFIALAIGTLYSNALFQLIPEAFGFNPLEDYYVSKSAVVFGGFYLFFFTEKILKILLKQKNEHHHGHSHYASESLPSKKDQEEGVMEKLQNGDLDHMIPQHCSSELDGKAPMVDEKVIVGSLSVQDLQASQSACYWLKGVRYSDIGTLAWMITLSDGLHNFIDGLAIGASFTVSVFQGISTSVAILCEEFPHELGDFVILLNAGMSIQQALFFNFLSACCCYLGLAFGILAGSHFSANWIFALAGGMFLYISLADMFPEMNEVCQEDERKGSILIPFIIQNLGLLTGFTIMVVLTMYSGQIQIG [SLC39A14]	-0.0657	55.3 °C	59 °C	1.32	2.81	-0.241
MKLPARVFFTLGSRLPCGLAPRRFFSYGTKILYQNTEALQSKFFSPLQKAMLPPNSFQGKVAFITGGGTGLGKGMTTLLSSLGAQCVIASRKMDVLKATAEQISSQTGNKVHAIQCDVRDPDMVQNTVSELIKVAGHPNIVINNAAGNFISPTERLSPNAWKTITDIVLNGTAFVTLEIGKQLIKAQKGAAFLSITTIYAETGSGFVVPSASAKAGVEAMSKSLAAEWGKYGMRFNVIQPGPIKTKGAFSRLDPTGTFEKEMIGRIPCGRLGTVEELANLAAFLCSDYASWINGAVIKFDGGEEVLISGEFNDLRKVTKEQWDTIEELIRKTKGS [DECR1]	0.0868	55.7 °C	55.5 °C	0.81	-1.85	0.263
MKPKLMYQELKVPAEEPANELPMNEIEAWKAAEKKARWVLLVLILAVVGFGALMTQLFLWEYGDLHLFGPNQRPAPCYDPCEAVLVESIPEGLDFPNASTGNPSTSQAWLGLLAGAHSSLDIASFYWTLTNNDTHTQEPSAQQGEEVLRQLQTLAPKGVNVRIAVSKPSGPQPQADLQALLQSGAQVRMVDMQKLTHGVLHTKFWVVDQTHFYLGSANMDWRSLTQVKELGVVMYNCSCLARDLTKIFEAYWFLGQAGSSIPSTWPRFYDTRYNQETPMEICLNGTPALAYLASAPPPLCPSGRTPDLKALLNVVDNARSFIYVAVMNYLPTLEFSHPHRFWPAIDDGLRRATYERGVKVRLLISCWGHSEPSMRAFLLSLAALRDNHTHSDIQVKLFVVPADEAQARIPYARVNHNKYMVTERATYIGTSNWSGNYFTETAGTSLLVTQNGRGGLRSQLEAIFLRDWDSPYSHDLDTSADSVGNACRLL [PLD3]	0.309	55.7 °C	55.3 °C	-2.87	-4.26	-0.0637
MKPLVVFVLGGPGAGKGTQCARIVEKYGYTHLSAGELLRDERKNPDSQYGELIEKYIKEGKIVPVEITISLLKREMDQTMAANAQKNKFLIDGFPRNQDNLQGWNKTMDGKADVSFVLFFDCNNEICIERCLERGKSSGRSDDNRESLEKRIQTYLQSTKPIIDLYEEMGKVKKIDASKSVDEVFDEVVQIFDKEG [CMPK1]	0.272	51.1 °C	52.2 °C	1.52	0.905	0.065
MKRPKLKKASKRMTCHKRYKIQKKVREHHRKLRKEAKKRGHKKPRKDPGVPNSAPFKEALLREAELRKQRLEELKQQQKLDRQKELEKKRKLETNPDIKPSNVEPMEKEFGLCKTENKAKSGKQNSKKLYCQELKKVIEASDVVLEVLDARDPLGCRCPQVEEAIVQSGQKKLVLILNKSDLVPKENLESWLNYLKKELPTVVFRASTKPKDKGKITKRVKAKKNAAPFRSEVCFGKEGLWKLLGGFQETCSKAIRVGVIGFPNVGKSSIINSLKQEQMCNVGVSMGLTRSMQVVPLDKQITIIDSPSFIVSPLNSSSALALRSPASIEVVKPMEAASAILSQADARQVVLKYTVPGYRNSLEFFTVLAQRRGMHQKGGIPNVEGAAKLLWSEWTGASLAYYCHPPTSWTPPPYFNESIVVDMKSGFNLEELEKNNAQSIRAIKGPHLANSILFQSSGLTNGIIEEKDIHEELPKRKERKQEEREDDKDSDQETVDEEVDENSSGMFAAEETGEALSEETTAGEQSTRSFILDKIIEEDDAYDFSTDYV [GNL3]	-1.72	45.3 °C	50.2 °C	5.07	8.85	0.867
MKSLKAKFRKSDTNEWNKNDDRLLQAVENGDAEKVASLLGKKGASATKHDSEGKTAFHLAAAKGHVECLRVMITHGVDVTAQDTTGHSALHLAAKNSHHECIRKLLQSKCPAESVDSSGKTALHYAAAQGCLQAVQILCEHKSPINLKDLDGNIPLLLAVQNGHSEICHFLLDHGADVNSRNKSGRTALMLACEIGSSNAVEALIKKGADLNLVDSLGYNALHYSKLSENAGIQSLLLSKISQDADLKTPTKPKQHDQVSKISSERSGTPKKRKAPPPPISPTQLSDVSSPRSITSTPLSGKESVFFAEPPFKAEISSIRENKDRLSDSTTGADSLLDISSEADQQDLLSLLQAKVASLTLHNKELQDKLQAKSPKEAEADLSFDSYHSTQTDLGPSLGKPGETSPPDSKSSPSVLIHSLGKSTTDNDVRIQQLQEILQDLQKRLESSEAERKQLQVELQSRRAELVCLNNTEISENSSDLSQKLKETQSKYEEAMKEVLSVQKQMKLGLVSPESMDNYSHFHELRVTEEEINVLKQDLQNALEESERNKEKVRELEEKLVEREKGTVIKPPVEEYEEMKSSYCSVIENMNKEKAFLFEKYQEAQEEIMKLKDTLKSQMTQEASDEAEDMKEAMNRMIDELNKQVSELSQLYKEAQAELEDYRKRKSLEDVTAEYIHKAEHEKLMQLTNVSRAKAEDALSEMKSQYSKVLNELTQLKQLVDAQKENSVSITEHLQVITTLRTAAKEMEEKISNLKEHLASKEVEVAKLEKQLLEEKAAMTDAMVPRSSYEKLQSSLESEVSVLASKLKESVKEKEKVHSEVVQIRSEVSQVKREKENIQTLLKSKEQEVNELLQKFQQAQEELAEMKRYAESSSKLEEDKDKKINEMSKEVTKLKEALNSLSQLSYSTSSSKRQSQQLEALQQQVKQLQNQLAECKKQHQEVISVYRMHLLYAVQGQMDEDVQKVLKQILTMCKNQSQKK [RAI14]	-0.263	49.7 °C	50 °C	0.622	0.688	0.267
MKSLSLLLAVALGLATAVSAGPAVIECWFVEDASGKGLAKRPGALLLRQGPGEPPPRPDLDPELYLSVHDPAGALQAAFRRYPRGAPAPHCEMSRFVPLPASAKWASGLTPAQNCPRALDGAWLMVSISSPVLSLSSLLRPQPEPQQEPVLITMATVVLTVLTHTPAPRVRLGQDALLDLSFAYMPPTSEAASSLAPGPPPFGLEWRRQHLGKGHLLLAATPGLNGQMPAAQEGAVAFAAWDDDEPWGPWTGNGTFWLPTVQPFQEGTYLATIHLPYLQGQVTLELAVYKPPKVSLMPATLARAAPGEAPPELLCLVSHFYPSGGLEVEWELRGGPGGRSQKAEGQRWLSALRHHSDGSVSLSGHLQPPPVTTEQHGARYACRIHHPSLPASGRSAEVTLEVAGLSGPSLEDSVGLFLSAFLLLGLFKALGWAAVYLSTCKDSKKKAE [TAPBP]	0.297	52.5 °C	53 °C	0.903	1.98	0.000151
MKVARFQKIPNGENETMIPVLTSKKASELPVSEVASILQADLQNGLNKCEVSHRRAFHGWNEFDISEDEPLWKKYISQFKNPLIMLLLASAVISVLMHQFDDAVSITVAILIVVTVAFVQEYRSEKSLEELSKLVPPECHCVREGKLEHTLARDLVPGDTVCLSVGDRVPADLRLFEAVDLSIDESSLTGETTPCSKVTAPQPAATNGDLASRSNIAFMGTLVRCGKAKGVVIGTGENSEFGEVFKMMQAEEAPKTPLQKSMDLLGKQLSFYSFGIIGIIMLVGWLLGKDILEMFTISVSLAVAAIPEGLPIVVTVTLALGVMRMVKKRAIVKKLPIVETLGCCNVICSDKTGTLTKNEMTVTHIFTSDGLHAEVTGVGYNQFGEVIVDGDVVHGFYNPAVSRIVEAGCVCNDAVIRNNTLMGKPTEGALIALAMKMGLDGLQQDYIRKAEYPFSSEQKWMAVKCVHRTQQDRPEICFMKGAYEQVIKYCTTYQSKGQTLTLTQQQRDVYQQEKARMGSAGLRVLALASGPELGQLTFLGLVGIIDPPRTGVKEAVTTLIASGVSIKMITGDSQETAVAIASRLGLYSKTSQSVSGEEIDAMDVQQLSQIVPKVAVFYRASPRHKMKIIKSLQKNGSVVAMTGDGVNDAVALKAADIGVAMGQTGTDVCKEAADMILVDDDFQTIMSAIEEGKGIYNNIKNFVRFQLSTSIAALTLISLATLMNFPNPLNAMQILWINIIMDGPPAQSLGVEPVDKDVIRKPPRNWKDSILTKNLILKILVSSIIIVCGTLFVFWRELRDNVITPRDTTMTFTCFVFFDMFNALSSRSQTKSVFEIGLCSNRMFCYAVLGSIMGQLLVIYFPPLQKVFQTESLSILDLLFLLGLTSSVCIVAEIIKKVERSREKIQKHVSSTSSSFLEV [ATP2C1]	-0.143	54.1 °C	54.2 °C	-1.8	-1.34	-0.0972
MKVTLSALDTSESSFTPLVVIELAQDVKEETKEWLKNRIIAKKKDGGAQLLFRPLLNKYEQETLENQNLYLVGASKIRMLLGAEAVGLVKECNDNTMRAFTYRTRQNFKGFDDNNDDFLTMAECQFIIKHELENLRAKDEKMIPGYPQAKLYPGKSLLRRLLTSGIVIQVFPLHDSEALKKLEDTWYTRFALKYQPIDSIRGYFGETIALYFGFLEYFTFALIPMAVIGLPYYLFVWEDYDKYVIFASFNLIWSTVILELWKRGCANMTYRWGTLLMKRKFEEPRPGFHGVLGINSITGKEEPLYPSYKRQLRIYLVSLPFVCLCLYFSLYVMMIYFDMEVWALGLHENSGSEWTSVLLYVPSIIYAIVIEIMNRLYRYAAEFLTSWENHRLESAYQNHLILKVLVFNFLNCFASLFYIAFVLKDMKLLRQSLATLLITSQILNQIMESFLPYWLQRKHGVRVKRKVQALKADIDATLYEQVILEKEMGTYLGTFDDYLELFLQFGYVSLFSCVYPLAAAFAVLNNFTEVNSDALKMCRVFKRPFSEPSANIGVWQLAFETMSVISVVTNCALIGMSPQVNAVFPESKADLILIVVAVEHALLALKFILAFAIPDKPRHIQMKLARLEFESLEALKQQQMKLVTENLKEEPMESGKEKAT [ANO10]	-0.181	53.2 °C	51.9 °C	-0.93	-1.12	-0.214
